Test results: patent US20190248902A1 (published 2019)
Numbering of substitutions follows the chain as printed. Each block holds one binder with its values, some of them ahead of it.

What was measured:
[1] = molecular target: T1, recombinant, soluble human ASGR-1 (human, UniProt P07306 62-291); test: Octet BLI dissociation, pH 7.4 minus calcium
T1 construct: biotinylated in the binning assay; also called soluble huASGR-1; Soluble ASGR-1 (Amgen)
T1 sequence: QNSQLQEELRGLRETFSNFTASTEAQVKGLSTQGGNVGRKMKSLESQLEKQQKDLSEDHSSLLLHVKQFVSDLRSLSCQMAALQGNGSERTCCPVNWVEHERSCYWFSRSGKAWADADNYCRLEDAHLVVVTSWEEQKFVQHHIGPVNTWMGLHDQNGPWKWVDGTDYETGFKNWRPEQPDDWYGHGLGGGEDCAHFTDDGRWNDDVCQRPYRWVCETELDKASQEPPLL
Outline: (§1)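 Antibodies were captured on anti-human Fc biosensors, and soluble ASGR-1 (6 ug/ml) was associated for 2 min in Tris buffer containing 1 mM CaCl2 at pH 7.4, followed by 10 min dissociation under each test condition. The signal at the end of association was set as 100%. Percent ASGR-1 still bound after 1 min of dissociation was compared with the pH 7.4 plus calcium control, and >10% extra dissociation was scored as sensitive.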

[2] = molecular target: T1, recombinant, soluble human ASGR-1; test: Octet BLI dissociation, pH 5.6 plus calcium
Outline: as §1

[3] = molecular target: T1, recombinant, soluble human ASGR-1; test: Octet BLI dissociation, pH 5.6 minus calcium
Outline: as §1

human ASGR-1 [4] = molecular target: T2, human ASGR-1 (human, UniProt P07306 1-291); test: FACS ligand blocking on CHO-S ASGR-1 cells; competitor biotinylated asialofetuin
T2 construct: Stably expressed on CHO-S cells (CHO-S:huASGR-1); The method text says human or mouse ASGR-1 cells were used; also called huASGR-1; hASGR-1
T2 sequence: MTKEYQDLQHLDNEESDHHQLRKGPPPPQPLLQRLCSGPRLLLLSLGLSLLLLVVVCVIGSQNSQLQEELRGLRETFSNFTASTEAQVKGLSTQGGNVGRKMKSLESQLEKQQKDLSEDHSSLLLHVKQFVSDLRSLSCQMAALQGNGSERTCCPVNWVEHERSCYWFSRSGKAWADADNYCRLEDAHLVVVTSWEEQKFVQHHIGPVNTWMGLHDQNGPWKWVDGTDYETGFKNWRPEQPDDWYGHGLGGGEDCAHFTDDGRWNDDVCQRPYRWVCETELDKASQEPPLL
Protocol: (§2) All ASGR-1 antibodies that bound either human or mouse ASGR-1 stable CHO—S cells were then tested for ligand blocking using both a protein ligand and a synthetic sugar ligand. The method in brief is as follows: first, 20 ul of either CHO-Shuman or mouse ASGR-1 cells were added to wells of a 384 well plate (30 k cells/well) followed by spin and discarding the supernatant. Second, 10 ul of the antibodies (either purified from hybridoma supernatants or made recombinantly) were added in duplicate to the cells in a dilution series (200 nM top concentration, 1:2 serial dilution, 11 point curve) and were incubated for 30 min at 4 C. […] After 30 min incubation at 4C, the plate was spun and washed twice with FACS buffer+1 mM CaCl2 followed by the detection streptavidin-AF647 at 1:1000 dilution. After 30 min at 4C, the cells were spun and washed once and then 60 ul PI added at 1:1000 dilution and the plates delivered to a core flow cytometry facility. The plates were read and processed similarly to the cell binding method except the signal now represents an inhibition curve and typically decreases a function of increasing antibody concentration. IC50 nM potency and % Inhibition were reported. […] Differences in the ability of antibodies to block these two ligands could occur as a result of differences in, for example, avidity stemming from differences in the number and/or orientation of the ASGR binding terminal sugar residues of each ligand, steric hindrance between antibody and each ligand, and/or changes in the conformation of ASGR induced by antibody binding that selectively alters the binding of each ligand.

human ASGR-1 [5] = molecular target: T2, human ASGR-1; test: FACS ligand blocking on CHO-S ASGR-1 cells; labelled ligand biotin-GalNAc-PAA (synthetic sugar)
Protocol: as §2

% Change Compared to pH 7.4 + Calcium [1]: 21%
% Change Compared to pH 7.4 + Calcium [2]: 3%
% Change Compared to pH 7.4 + Calcium [3]: 45%
B1: 52D10 (antibody, V domains shown)
VH: QVQLVESGGGVVQPGRSLRLSCAASGFTFSSYGMHWVRQAPGKGLEWVALIWYDGSNKYHADSVKGRFTISRDNSKNTLYLQMNSLRAEDTAVYYCARRYSSSWSGGMDVWGQGTTVTVSS
VL: DVMMTQIPLSLSVTPGQPASISCKSSQSLLHSEGKTYLYWYLQKPGQPPQLLIFEVSNRVSGVPDRFSGRGSGTDFTLKISRVEAEDVGVYYCMQSIQYPITFGQGTRLEIK
notes: hybridoma mAb

% Change Compared to pH 7.4 + Calcium [1]: 2%
% Change Compared to pH 7.4 + Calcium [2]: 10%
% Change Compared to pH 7.4 + Calcium [3]: 16%
B2: 194C10 (antibody, V domains shown)
VH: QVQLQQWGAGLLKPSETLSLTCAVSGGSFRYYYWSWIRQPPGKGLEWFGEINHSGSTNYNPSLKSRVTISIDTSKNQFSLKLRSVTAADTAVYYCARDYGAFDIWGQGTMVTVSS
VL: EIVLTQSPGTLSLSPGERATLSCRASPSVNSGYLAWYQQKPGQTPRLLIFGASSRATGIPDRFSASGSGADFTLTISRLEPEDFAVYFCQQYESSPWTFGQGTKVEIK
notes: hybridoma mAb

% Change Compared to pH 7.4 + Calcium [1]: -8%
% Change Compared to pH 7.4 + Calcium [2]: -30%
% Change Compared to pH 7.4 + Calcium [3]: -28%
B3: 198D2 (antibody, V domains shown)
VH: QVQLVESGGGVVQPGRSLRLSCAASGFTFRSYGMHWVRQAPGKGLEWVAVIIYDGSYKYYADSVKGRFTISRDNSKNTLYLQMNSLRAEDTAVYYCARTYSGGMDVWGQGTTVTVSS
VL: QSVLTQPPSVSAAPGQKVTISCSGSSSNIGSNYVSWYQQLPGTAPKVLIYDNNKRPSGIPDRFSGSKSGTSATLGITGLQTGDEADYYCGTWDSRLNVGVFGGGTKLTVL
notes: hybridoma mAb

% Inhibition (human ASGR-1 [4]): 99%
IC50 (human ASGR-1 [4]): 13 nM
% Inhibition (human ASGR-1 [5]): 37%
IC50 (human ASGR-1 [5]): 40 nM
B4: 7E11 (antibody, V domains shown)
VH: QVQLVESGGGVVQPGRSLRLSCAASGFTFSSFGMHWVRQAPGKGLEWVAIIWHDGSNKYYADSVKGRFTISRDNSNNTLYLQMSSLRAEDTAVYYCARDLSMGGMDVWGQGTTVTVSS
VL: DIQMTQSPSSLSASVGDRVTIACRASQNIISYLNWYQQKPGKAPKFLIYTASSLQSGVPSRFSGSGSGTDFTLTISSLQPEDFAIYYCQQTYSTPLTFGGGTKVEIK

% Change Compared to pH 7.4 + Calcium [1]: -8%
% Change Compared to pH 7.4 + Calcium [2]: -5%
% Change Compared to pH 7.4 + Calcium [3]: -6%
B5: 196F4 (antibody, V domains shown)
VH: EVQLLESGGGLVQPGGSLRFSCAASGFTFSSCAMTWVRQAPGKGLEWVSAISGSGGSTYYADSVKGRFTISRDNSKNTLYLQMNSLRAEDTAVYYCAKVGGLTGSYYYYGMDVWGQGTTVTVSS
VL: DFQMIQSPSSLSASVGDRVTITCRASQRIHSYLNWYQQKPGKAPKLLIYTASSLQGGVPSRFSGSGSGTDFTLTISSLQPEDFATYYCQQSYGSPLTFGGGTKVEIK
notes: hybridoma mAb

% Change Compared to pH 7.4 + Calcium [1]: 2%
% Change Compared to pH 7.4 + Calcium [2]: -4%
% Change Compared to pH 7.4 + Calcium [3]: 26%
B6: 176H4 (antibody, V domains shown)
VH: QVQLVESGGGVVQPGRSLRLSCAASGFTFSSYGMHWVRQAPGKGLEWVAIIWYDGSYKYYADSVKGRFTISRDNSKNTLYLQMSSLRAEDTAVYYCARDAHDFWSGYFAYWGQGALVTVSS
VL: DIVMTQTPLSLSVTPGQPASISCKSSQSLLHGDGKTYLYWYLQKPGQPPQLLIYEVSNRFSGVPDRFSGSGSGTDFTLKISRVEAEDVGIYYCMQSIQIPWTFGQGTRVEIK
notes: hybridoma mAb

% Inhibition (human ASGR-1 [4]): 99%
% Inhibition (human ASGR-1 [5]): 93%
B7: 22G5 (antibody, V domains shown)
VH: EVQLLESGGGLVQPGGSLRLSCAASGFTFSSYAMNWVRQAPGMGLEWVSVISRSGGYTYYADSVKGRFTISRDNSKNTLYLQMNSLRAEDTAVYYCASRLAVAGSEAFDIWGQGTLVTVSS
VL: DIQMTQSPSSLSASVGDRVTITCRASQNISSYLNWYQQKQGKAPKLLIYAASSLQNGVPSRFSGRGSGTDFTLTISSLQPEDFATYYCQQSYRTPLFTFGPGTKVDFK

% Inhibition (human ASGR-1 [4]): 20%
IC50 (human ASGR-1 [4]): 10 nM
% Inhibition (human ASGR-1 [5]): 10%
IC50 (human ASGR-1 [5]): 2.1 nM
B8: 12D2 (antibody, V domains shown)
VH: EVQLVESGGGLVKPGGSLRLSCAASGFTFSSYSMNWVRQAPGKGLEWVSSISSSSSYIYYADSVKGRFTISRDNAKNSLYLQMNSLRAEDTAVYYCARLGDYWGQGTLVAVSS
VL: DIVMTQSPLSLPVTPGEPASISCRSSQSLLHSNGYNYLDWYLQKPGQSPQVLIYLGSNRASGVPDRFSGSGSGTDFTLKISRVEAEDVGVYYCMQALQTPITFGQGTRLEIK

% Inhibition (human ASGR-1 [4]): 99%
IC50 (human ASGR-1 [4]): 11 nM
% Inhibition (human ASGR-1 [5]): 0%
IC50 (human ASGR-1 [5]): > 200 nM
B9: 6G7 (antibody, V domains shown)
VH: QVQLVESGGGVVQPGRSLRLSCAASGFTFSSYGMHWVRQTPGKGLEWVAIISYVGKNKYYADSVKGRFTISRDNSKNTLYLQMNSLRAEDTAVYYCARRGNSYGGYGMDVWGQGTTVTVSS
VL: DIQMTQSPSSRSASVGDRVTITCQASQDISNYLNWCQQKPGKALKLLIYDASTLETGVPSRFSGSGSGTDFTFTISSVQPEDIATYYCQQYDNVPITFGQGTRLEIK

% Inhibition (human ASGR-1 [4]): 99%
IC50 (human ASGR-1 [4]): 11 nM
% Inhibition (human ASGR-1 [5]): 77%
IC50 (human ASGR-1 [5]): 40 nM
B10: 25A4 (antibody, V domains shown)
VH: QVLLVQSGAEVKRPGASVKVSCKASGYTFTNYDINWVRQATGQGLEWMGWMYPNSGNTGYAQKFQGRVTMTRNTSISTAYMELSSLRSEDTAVYYCASSSGWYYFDYWGQGTLVTVSS
VL: DIVMTQFPDSLAVSLGERATIKCKSSQSVLYSSHNNNYLAWYQQKPGQPPKLLLYWASTRESGVPDRFSGSGSGTEFTLTISSLEAEDVAVYYCQQYYSTPPTFGQGTKVEIK

% Inhibition (human ASGR-1 [4]): 99%
IC50 (human ASGR-1 [4]): 6.6 nM
% Inhibition (human ASGR-1 [5]): 83%
IC50 (human ASGR-1 [5]): 36 nM
B11: 26C4 (antibody, V domains shown)
VH: B10 VH with L3Q, R13K, T41S, Y52N, K63R, S77N
VL: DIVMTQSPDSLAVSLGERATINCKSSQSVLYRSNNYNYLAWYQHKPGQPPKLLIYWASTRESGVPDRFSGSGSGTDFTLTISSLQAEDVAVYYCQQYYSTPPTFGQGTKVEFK

% Inhibition (human ASGR-1 [4]): 95%
% Inhibition (human ASGR-1 [5]): 0%
B12: 5E5 (antibody, V domains shown)
VH: QVQLVESGGGVVQPGRSLRLSCAASGFTFSNYVMHWVRQAPGKGLEWVAVIWYDGSNKYYADSVKGRFTISRDNSKNTLYLQMNSLRAEDTAVYYCTREVYSSGWYDYGMDVWGQGTTVTVSS
VL: DIQMTQSPSSLSASVGDRVTITCRASQGIRNDLGWYQQKPGKAPKRLIYAASSLQSGVPSRFSGSGSGTEFTLTISSLQPEDFATYYCLQHYSYPRTFGQGTKVEVK

% Inhibition (human ASGR-1 [4]): 99%
IC50 (human ASGR-1 [4]): 2.6 nM
% Inhibition (human ASGR-1 [5]): 30%
IC50 (human ASGR-1 [5]): 0.24 nM
B13: 7F4 (antibody, V domains shown)
VH: QLQLQESGPGLVKPSETLSLTCTVSGGSISRSSYYWGWIRQPPGKGLEWIGNIYYSGATYYNPSLKSRVTISVDTSTNQFSLKLSSVTAADTAVYYCARHSGSWSLDYWGQGTLVTVSS
VL: B12 VL with A25T, S53N, Y92S, S93A, R96L, Q100G, V106I

% Change Compared to pH 7.4 + Calcium [1]: -21%
% Change Compared to pH 7.4 + Calcium [2]: -22%
% Change Compared to pH 7.4 + Calcium [3]: -23%
B14: 202A3 (antibody, V domains shown)
VH: QVQLEQSGAEVKKPGASVKVSCKASGYTFTSYDINWVRQATGQGLEWLGWMNPKRGNTGYAQKFQGRVTMTRNTSISTAHMELSSLRSEDTAVYYCARGRYSREDYYYYYDMDVWGQGTTVTVSS
VL: B12 VL with T5S, Y49C, S53R, T85I, Y92H, S93D, R96F, Q100P, E105D, V106I
notes: hybridoma mAb

% Inhibition (human ASGR-1 [4]): 96%
IC50 (human ASGR-1 [4]): 14 nM
% Inhibition (human ASGR-1 [5]): -30%
IC50 (human ASGR-1 [5]): 20 nM
B15: 7G4 (antibody, V domains shown)
VH: B12 VH with S30N, N84T, T97A, V100K, G104N
VL: B12 VL with K39R, F83S, Q90H, H91Q, V106I
